According to patent US20090226421A1 (Genmab, published 2009):

Biological target: T1, human C1q (human, UniProt P02745 23-245; P02746 28-253; P02747 29-245)
T1 construct: also called first component of the classical complement cascade
Test: ELISA, antibody coated, C1q detected with rabbit anti-human C1q
Procedure: In short, microtiter ELISA plates (Greiner, Germany) were coated overnight at RT with the test antibodies serially diluted from 10 μg/ml to 0.06 μg/ml in PBS. Plates were emptied and wells were blocked with 200 μl ELISA-diluent per well (0.1 M NaPO₄, 0.1 M NaCl, 0.1% gelatin and 0.05% Tween-20), at RT for 30 minutes. […] After washing the plates (3×) with PBST, wells were incubated with HRP-conjugated swine anti-rabbit IgG-Fc (DAKO, P0300, lot #069) diluted in ELISA diluent (1:2500, 100 μl/well, RT, 1 hour). Thereafter, plates were washed thrice and assays were developed with freshly prepared 1 mg/ml ABTS solution (ABTS: 2,2′-azino-bis[3-ethylbenzthiazoline-6-sulfonic acid]); 2 tablets of 5 mg in 10 ml ABTS buffer, Boehringer Mannheim, Ingelheim, Germany) at RT in the dark for 30 minutes. Absorbance was measured at 405 nm in an ELISA plate reader (Biotek Instruments Inc., Winooski, USA).

T1 sequence (P02745 23-245, chain 1 of 3): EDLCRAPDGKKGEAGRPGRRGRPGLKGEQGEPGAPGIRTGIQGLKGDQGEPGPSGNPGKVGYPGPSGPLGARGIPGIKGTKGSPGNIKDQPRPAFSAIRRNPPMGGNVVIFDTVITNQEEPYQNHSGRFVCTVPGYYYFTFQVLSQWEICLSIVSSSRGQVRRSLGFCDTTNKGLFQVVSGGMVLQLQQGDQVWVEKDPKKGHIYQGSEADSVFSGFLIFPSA
T1 sequence (P02746 28-253, chain 2 of 3): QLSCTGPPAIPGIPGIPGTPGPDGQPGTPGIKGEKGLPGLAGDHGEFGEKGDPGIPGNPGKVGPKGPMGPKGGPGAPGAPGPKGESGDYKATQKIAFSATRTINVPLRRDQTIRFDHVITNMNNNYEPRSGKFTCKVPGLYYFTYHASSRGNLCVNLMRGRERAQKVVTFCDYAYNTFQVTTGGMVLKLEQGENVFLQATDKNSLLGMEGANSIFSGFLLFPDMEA
T1 sequence (P02747 29-245, chain 3 of 3): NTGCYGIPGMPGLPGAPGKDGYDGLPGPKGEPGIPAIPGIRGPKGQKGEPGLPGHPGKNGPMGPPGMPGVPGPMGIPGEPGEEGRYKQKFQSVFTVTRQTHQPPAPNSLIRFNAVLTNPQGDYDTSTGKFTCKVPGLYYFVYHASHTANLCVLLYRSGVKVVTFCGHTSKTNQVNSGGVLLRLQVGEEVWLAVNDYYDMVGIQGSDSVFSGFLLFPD

B1: 7D8-HG (antibody)
heavy: EVQLVESGGGLVQPDRSLRLSCAASGFTFHDYAMHWVRQAPGKGLEWVSTISWNSGTIGYADSVKGRFTISRDNAKNSLYLQMNSLRAEDTALYYCAKDIQYGNYYYGMDVWGQGTTVTVSSASTKGPSVFPLAPCSRSTSESTAALGCLVKDYFPEPVTVSWNSGALTSGVHTFPAVLQSSGLYSLSSVVTVPSSSLGTKTYTCNVDHKPSNTKVDKRVAPEFLGGPSVFLFPPKPKDTLMISRTPEVTCVVVDVSQEDPEVQFNWYVDGVEVHNAKTKPREEQFNSTYRVVSVLTVLHQDWLNGKEYKCKVSNKGLPSSIEKTISKAKGQPREPQVYTLPPSQEEMTKNQVSLTCLVKGFYPSDIAVEWESNGQPENNYKTTPPVLDSDGSFFLYSRLTVDKSRWQEGNVFSCSVMHEALHNHYTQKSLSLSLGK
light: not shown
notes: Half-molecule of one heavy and one light chain (SDS-PAGE, MS 71520 Da); also called HuMab 7D8-HG; hingeless IgG4 anti-CD20
B1: no binding.
